Reference: publication PMC6393306
Where two headings read alike, the source gives them in different places.

Columns and labels:
[1] = molecular target: T1, GEN1 1-527 (dimer) (Homo sapiens, UniProt Q17RS7 1-527); assay: EMSA
T1 sequence: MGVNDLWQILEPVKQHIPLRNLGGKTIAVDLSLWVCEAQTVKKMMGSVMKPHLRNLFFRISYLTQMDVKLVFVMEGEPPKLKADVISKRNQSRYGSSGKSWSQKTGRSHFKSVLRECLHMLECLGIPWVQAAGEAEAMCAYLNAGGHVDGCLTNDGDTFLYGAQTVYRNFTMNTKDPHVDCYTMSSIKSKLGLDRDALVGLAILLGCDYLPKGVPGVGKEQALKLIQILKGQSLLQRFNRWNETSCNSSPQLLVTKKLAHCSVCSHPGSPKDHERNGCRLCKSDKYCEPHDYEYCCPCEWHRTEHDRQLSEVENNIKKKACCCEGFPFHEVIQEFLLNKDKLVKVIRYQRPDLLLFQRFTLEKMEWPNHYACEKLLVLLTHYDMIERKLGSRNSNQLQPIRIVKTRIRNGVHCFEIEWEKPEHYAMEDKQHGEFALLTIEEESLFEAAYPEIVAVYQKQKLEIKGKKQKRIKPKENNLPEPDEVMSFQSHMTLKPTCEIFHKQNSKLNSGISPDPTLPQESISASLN

[2] = molecular target: T1, GEN1 1-527 (dimer); assay: EMSA; remark: listed apart in the source

B1: X0 (Cy5, EMSA) (structured_DNA)
DNA 1: ACGCTGCCGAATTCTACCAGTGCCTTGCTAGGACATCTTTGCCCACCTGCAGGTTCACCC
DNA 2: GGGTGAACCTGCAGGTGGGCAAAGATGTCCATCTGTTGTAATCGTCAAGCTTTATGCCGT
DNA 3: ACGGCATAAAGCTTGACGATTACAACAGATCATGGAGCTGTCTAGAGGATCCGACTATCG
DNA 4: CGATAGTCGGATCCTCTAGACAGCTCCATGTAGCAAGGCACTGGTAGAATTCGGCAGCGT
B1 showed a Kd [1] of 23.4 nM and a Kd [2] of 6.23 nM.
